{"source": "the nanobody polyreactivity screen of Harvey et al. (2022)", "data": [{"experiment": "yeast display, Sf9 membrane polyspecificity reagent, FACS + sequencing; frameworks hold sequencing errors", "outline": "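In a synthetic yeast display library (Saccharomyces cerevisiae BJ5465), nanobody expression was induced with galactose for 36–48 hours. FACS gates were set low and high (top ~1%) using anti-HA fluorescence for expression and streptavidin fluorescence for binding of the Sf9 membrane reagent. Each polyreactivity label is drawn from the gate of origin.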", "values": [{"sequence": "QVQLVESGGGLVQAGGSLRLSCAASGRTFYFNAMRWYRQAPGKERELVAGISGDGSTNYADSVKGRFTISRDNAKNTVYLQMNSLKPEDTAVYYCAARIRPGYRTWYYSWGQGTQVTVSS", "polyreactivity (PSR sort gate)": "low polyreactivity"}, {"sequence": "QVQLVESGGGLVQAGGSLRLSCAASGSTFTYNAMGWYRQAPGKERELVASISSGTTTYYADSVKGRFTISRDNAKNTVYLQMNSLKPEDTAVYYCNADYFDYSRPRYDYWGQGTQVTVSS", "polyreactivity (PSR sort gate)": "low polyreactivity"}, {"sequence": "QVQLVESGGGLVQAGGSLRLSCAASGSTFRPYAMGWYRQAPGKERELVAAITSGGNTYYADSVKGRFTISRDNAKNTVYLQMNSLKPEDTAVYYCAARPYYYIVRGTEYDYWGQGTQVTVSS", "polyreactivity (PSR sort gate)": "high polyreactivity"}, {"sequence": "QVQLVESGGGLVQAGGSLRLSCAASGSTFFPYAMGWYRQAPGKERELVAAITSGGRTKYADSVKGRFTISRDNAKNTVYLQMNSLKPEDTAVYYCAARGLIKEYGGPYRRFGYWGQGTQVTVSS", "polyreactivity (PSR sort gate)": "high polyreactivity"}, {"sequence": "QVQLVESGGGLVHAGGSHRLSCAASGFTFTFYAMGWYRQAPVKERELVAAIRTSDGRTYYADSVKGRFTISRDNAKNTVYLQMNSLKPEDTAVYYCAAQVYRPRARYYEYDYWGQGTQVTVSS", "polyreactivity (PSR sort gate)": "high polyreactivity"}, {"sequence": "QVQLVESGGGLVQAGGSLRLSCAASGILFGGYVMGWDRQAPGKERELVAAISRGGGITYYADSVKGRFTISRDNAKNTVYLQMNSLKPEDPAVYYCNAGVYAGQTGYDYWGQGTQVTVSS", "polyreactivity (PSR sort gate)": "high polyreactivity"}, {"sequence": "QVQLVESGGGLVQAGGSLRLSCAASGRIFNVYDMGRYRQAPGKERELVAAISSGANTNYADSVKGRFTISRDNAKNTVYLQMNSLKPEDTAVYYCNTEQFYDYDYTFDYWGQGTQVTVSS", "polyreactivity (PSR sort gate)": "low polyreactivity"}, {"sequence": "QVQLVESGGGLVQAGGTLRLSCAASGRTLRRYAIGWYRQAPGTERELVADNSWRGTSTNYADSVKGRFTISRDNAKNTVYLQMNSLKPEDTAVYYCAAKQTYTRLHYLGPSVWDNYDYWGQGTQVTVSS", "polyreactivity (PSR sort gate)": "high polyreactivity"}, {"sequence": "QVQLVESGGGLVQAGGSLRLSCAASGFIFFYAMGWYRQAPGKERELVAAISSRGGSTYYADSVKGRFTISRDNAKNTVYLQMNSLKPEDTAVYYCAALLWSAESDYWGQGTQVTVSS", "polyreactivity (PSR sort gate)": "high polyreactivity"}, {"sequence": "QDQLVESGGGLVQEGGSLRLSCAASGNIFNRYGMGWYRQAPGKEREFVAAISSGGGSTYYADSVKGRFTISRDNAKNTVYLQINRLKPEDTAVYYCAAGYSSLRRVGVYYWRQGTQVTVSS", "polyreactivity (PSR sort gate)": "high polyreactivity"}, {"sequence": "QVQLVESGGGLVQAGGSLRLSCAASGSIFLAYAMGWYRQAPGKEMELVATISVSGTTTYYADSVKGRFTISRDNAKNTVYLQMNSLKPEDTAVYYCAADQQDGLWDYQDWYDYWGQGTQVTVSS", "polyreactivity (PSR sort gate)": "low polyreactivity"}, {"sequence": "QVQLVESGGGLVKAGGSLRLSCAASGGIFYRNSMGWYRQAPGKERELVAAISWRGGSTYYADSVKGRFTISRDNAKNTVYLQMNSLKPEDTAVYYCAARSVATYRYDYWGQGTQVTVSS", "polyreactivity (PSR sort gate)": "high polyreactivity"}, {"sequence": "QFQLVESGGGLVEAGGSLRLSCAASGFTFSWYVMGWYRPAPGKERELVATITNRGGSTYYADSVKGRFTISRDNAKNTVYIQMKSQKPEDTAVYYCAARKKGSRVGYDYWGEGTQVTVSS", "polyreactivity (PSR sort gate)": "high polyreactivity"}, {"sequence": "QVQLVESVGGLVQAGGSLRLSCAASGRIFYFNGMGWYRQAPGKERELVAAITISTGSTYYADSVKGRFTISRDNAKNTVYLQMNSLKPEDTAVYYCNVEFEYSGWKSFDYWGQGTQVTVSS", "polyreactivity (PSR sort gate)": "low polyreactivity"}, {"sequence": "QVQLVESGGGLVQAGGSLRLSCAASGRTFGSYAMGWYRQAPGKERELVAAITWSGTGTYYADSVKGRFTISRDNAKNTVYLQMNSLKPEDTAVYYCNTDRWYAYDWGQGTQVTVSS", "polyreactivity (PSR sort gate)": "high polyreactivity"}, {"sequence": "QVQLVESGGGLVQAGGSLRLSCAASGFIFYIYAMGWYRQAPGKERELVAAISRSSARTYYADSVKGRFTISRYNAKNTVYLQMISLKPEDTAVYDCAARYSGQWYRGPQYGYWGQGTQVTVSS", "polyreactivity (PSR sort gate)": "high polyreactivity"}, {"sequence": "QVQLVESGGGLVQAGGSLRLSCAASGIIFGTYAMGWYRQAPGKERELVASISSRGGSTYYADSVKGRFTISRDNAKNTVYLQMNSLKPEDTAVYYCAKRPSYAYSRYRKGHDYWGQGTQVSVSS", "polyreactivity (PSR sort gate)": "high polyreactivity"}, {"sequence": "QVQLVESGGGLVQAGGSLSLSCAASGITFEWYAMGWYRQAPGKERELVAAISTSGGSTYYADSVKGRFTISRDNEKNTVYLQMNSLKPEDTEVYYCNTVSYGYSSKLYDYWGHGTQVTVSS", "polyreactivity (PSR sort gate)": "high polyreactivity"}, {"sequence": "QVQLVESGGGLVQAGGSLRLSCAASGSTVYAYAMGWYRQAPGKERELVAAIDSGGSTYYADSVKGRFTISRDNAKNTVNLQMNSLKPEDTAVYYCAVRHRYTRAYWGRDYWGQGTQVTVSS", "polyreactivity (PSR sort gate)": "low polyreactivity"}, {"sequence": "QVQLVESGGGLVQAGGSLRLTCAASVRTCYSYALGWYRQEPGKEMELVASISSGGGTNYADSVKGRFTISRYNAKNTVFLQMNSLKPEDTAVYYFAAYSSWGGFDYWGQGTQLTVSS", "polyreactivity (PSR sort gate)": "low polyreactivity"}, {"sequence": "QVQLVESGGGLVQSGGSLRLSCAASGRTFSYYAMGWYRQAPGKERELVAAISSGGSTNYADSVKGRFTISRDNAKNTVYLQMNSLKPEDTEVYYCATSSIWGSGRVRWVTYYYWGQGTQVTVSS", "polyreactivity (PSR sort gate)": "low polyreactivity"}, {"sequence": "QVQLVESGGGLVQAGGSLRLSCAASGSIFFYYVMGWYRQAPGKERELVAVISSGGGSTYYADSVKGRFTISRDNAKNTVYLQMNSLKPEDTAVYYCAAGTYYKFYYWGQGTQVTVSS", "polyreactivity (PSR sort gate)": "high polyreactivity"}, {"sequence": "QVQLVESGGCLVQAGGSQRLSCAASGIIFEGYAMRWYRQAPGRERELVAAISQSGGSTRYADSVKGRFTISRDNAKNTVYLQMNRLKAEDTAVYYCAKEVWNWGPYYYWGQGSQVTVSS", "polyreactivity (PSR sort gate)": "low polyreactivity"}, {"sequence": "QVQLVESGGGLVQAGGSLRLSCAASGSIFTAYDKGWYRQAPGKVRDLVAAINVSAGTTYYADSVKGRFTISRDNAKNTVYLQMNSLKPEDTAVYYCATDRSPTPYTRENIYDYWGQGTQVTVSS", "polyreactivity (PSR sort gate)": "low polyreactivity"}, {"sequence": "QVQLVESGGGLVQAGGSLRLSCDASGFTFGENAMGWYRQAPGNERELVAAISWSGTYTSYADSVKGRFTLSRDNAKNTVYLQMNSLKPEDTAVYYCATGCYAYVYPFDYWGQGTLVTVSS", "polyreactivity (PSR sort gate)": "low polyreactivity"}, {"sequence": "QVQLVESGGGLVQAGGSLRLSCAASGRLFWYNAMGWYRQAPGKERELVARITRGTRTYYADSVKGRFTISRDNAKNTVSLQMNSLKPEDTAVYYCRLQLSYTPHYDYWGQGTQVTVSS", "polyreactivity (PSR sort gate)": "high polyreactivity"}, {"sequence": "QVQLVESGGGLVQAGGSLRLSCAASGNIFYYYAMGWYRQAPGKERELVATNTSGGSTNYADSVKGRFTISRDNAKNTVYLQMNSLKPEDTAVYYCAADRRRTYYWLSSYFEGYYWGQGTQVTVSS", "polyreactivity (PSR sort gate)": "low polyreactivity"}, {"sequence": "QVQLVESGGGLVQAGGSLRLSCAASGSTFLNNAMGWSRQAPGEERELVAAISRRGGNTYYADSEKGRFTISRDNAKNTVSLHMNSLKPEDTAVYYCAADLVWTRYFGYAQDYYIEFDYWGQGTQVTVSS", "polyreactivity (PSR sort gate)": "high polyreactivity"}, {"sequence": "QVQLVESGGGLVQAGGSLRLSCAASGSTFFYYAMGWYRQAPGKERELVAAITRGSRTKYADSVKGRFTISRDNAKNTVYLQMNSLKPEDTAVYYCAARKNLYPYCYLWWQDYDYWVQGTQVTVSS", "polyreactivity (PSR sort gate)": "high polyreactivity"}, {"sequence": "QVQLVESGGGLVQAGGSLRLSCAASGIIFVKYAMGWYRQAPGKERELVAAINWRTGRTYYADSVKGRFTISRDNAKNTVYLQMNSLKPEDTAVYYCAADVGIVIRLGRTEESGYYWGQGTQVTVSS", "polyreactivity (PSR sort gate)": "low polyreactivity"}, {"sequence": "QVQRVESGGGLVQAGGSLRLSCAASGSIFEGYAMGWYRQAPGKQRELVARITSDDDSTYYADSVKGRFTISRDNAKFSVYLQMNSLIPEDTAVYYCNADYYWTSLAMDSWGQGTQVTVCS", "polyreactivity (PSR sort gate)": "low polyreactivity"}, {"sequence": "QVQLVESGGGLVQAGRSLRLSCAASGSTFVNYAMGWYRQAPGKERELVAAISRSGGRTYYADSVKGRFTISRDNAKNTVYLQMNSLKPEDTAVYYCAPLLLSPEYGYWGQGTQVTVSS", "polyreactivity (PSR sort gate)": "high polyreactivity"}, {"sequence": "QVQLQESGGGLVQAGGSLRLSCAASGYISSWYPMGWYRQAPGKEREFVATIAPGATTYYADSVKGRFTISRDYAKNTVYLQMNSLKPEDTAVYFCAAGPENNDFYSYWGQGTQVTVSS", "polyreactivity (PSR sort gate)": "low polyreactivity"}, {"sequence": "QVQLVESGGGLVQAGGSLRLSCAASGFTFPSNAMGWYRQAPGKERELVAAISSTDSTNYADSVKGRFTISRDNAKNTVYLQMNSLKPEDTAVYYCNADRDDDYDYWGQGTQVTVSS", "polyreactivity (PSR sort gate)": "low polyreactivity"}, {"sequence": "QVQLVESGGGLVQAGGSLRLSCAASGRIFVYYAMGWYRQAPGKERELVASISYSGASTYYADSVKGRFTISRDNAKNTVYLQMYSLKPEDTAVYYCNTDGDDFFHVIYDYWGQGTQVTVSS", "polyreactivity (PSR sort gate)": "low polyreactivity"}, {"sequence": "QVQLVESGGGLVQAGGILRLSCAASGFIFQFNAMGWYRQAPGKEMEMDASISVSGGSTYYADSVKGRFTISRDNAKNTVYLQMNSLKPEDTAVYYCAATQRRYTYGHDYWGQGTQVTVSS", "polyreactivity (PSR sort gate)": "low polyreactivity"}, {"sequence": "QVQLVESGGGLVQAGGSLRLSCAASGSIFSRYTMGWSRQAPGKERELVASISRRGGRTYYADSVKGRFTISRDNAKNTVYLQMNSLKPEDTAVYYCNTRTPAEYTPYGYDYWGQGTQVTVSS", "polyreactivity (PSR sort gate)": "high polyreactivity"}, {"sequence": "QVQLVESGGALVQAGGSLRLSCAASGSTSYTNAMGLYRHAPGKEREFVASISLSAGSTYYADSVKGRFKISRDNAKNTVYLQMNSLKPEDTAVYYCASESVAILGLVYPKGYGYWGQGTQVTVSS", "polyreactivity (PSR sort gate)": "low polyreactivity"}, {"sequence": "QVQLVESGGGLVQAGGSLRLSCAASGITFSPYTMGCYRQAPGKERELVAAITDGAITYYADSVKGRFTISRDNAKNTVYLQMNSLKPEDTAVYYCAAAAWGTDPYSTDYATYDYWGQGTQVTVSS", "polyreactivity (PSR sort gate)": "low polyreactivity"}, {"sequence": "QVQLVESGGGLVQAGGSLRLSCAASGSTFWWYAMGWYRQAPGKEREFVAAITSTGGSTYYADSVKGRFTISHDNAKNTVYLQMNSLKPEDTAVYYCAVRLYLEMDYWGQGTQVTVSS", "polyreactivity (PSR sort gate)": "high polyreactivity"}, {"sequence": "QVQLVESGGGLVQAGGSLRLSCPASGNIFVYYAMGWSRQAHGKERELVAAITSDVSTYYADSVKGRFTISRDNAKNTVYLQMNSLKPEDTAVYYCATTGYGSYVIYWGQGTQVTVSS", "polyreactivity (PSR sort gate)": "low polyreactivity"}, {"sequence": "QVQLVESGGGLVQAGGSLRLSCAASGSTFYNNAMGWYRQAPGKERELVAAISSGGGTYYADSVKGRFTISRDNAKNTVYLQMNSLKPEDTAVYYCAADFANTTHWGRIKRYDYWGQGTQVTVSS", "polyreactivity (PSR sort gate)": "low polyreactivity"}, {"sequence": "QVQLVESGGGLVQAGGSLRLSCAASGRIFTGNVMGWYRQAPGKERELVAAISYGGGSTNYADSVKGRFTISRDNAKNTVYLQMNSLKPEDTAVYYCAACIKRYLSYYTRYGYWGQGTQVTVSS", "polyreactivity (PSR sort gate)": "high polyreactivity"}]}]}
